The target in assay [1] is T1, human B7H4 expressed on CHO cells (human, UniProt Q7Z7D3 25-282).
T1 construct: whole, on cells; also called VCTN1
T1 sequence (looked up): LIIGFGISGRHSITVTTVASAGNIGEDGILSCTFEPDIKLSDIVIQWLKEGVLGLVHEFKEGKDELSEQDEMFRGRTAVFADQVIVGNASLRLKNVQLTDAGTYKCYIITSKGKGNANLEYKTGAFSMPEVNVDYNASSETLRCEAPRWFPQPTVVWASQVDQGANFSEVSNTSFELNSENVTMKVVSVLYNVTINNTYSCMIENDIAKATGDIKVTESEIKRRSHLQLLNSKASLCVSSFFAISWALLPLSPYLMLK
The experiment in a line: FACS, CHO cells.

Assay [2] addresses T2, human CD40 expressed on CHO cells (human, UniProt P25942 21-277).
T2 construct: whole, on cells; also used for the reporter cells over-expressing human CD40; also called cellular CD40; CHO-CD40 cells
As to the kind of experiment: FACS, CHO cells.

T2 sequence (P25942 21-277): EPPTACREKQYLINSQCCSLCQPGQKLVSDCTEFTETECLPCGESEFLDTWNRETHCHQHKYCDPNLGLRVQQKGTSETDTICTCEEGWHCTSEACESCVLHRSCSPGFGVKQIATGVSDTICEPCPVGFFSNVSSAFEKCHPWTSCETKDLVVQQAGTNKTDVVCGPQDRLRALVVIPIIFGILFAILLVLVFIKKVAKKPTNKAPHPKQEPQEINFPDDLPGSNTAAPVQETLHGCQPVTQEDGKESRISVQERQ

B1: Ly488 (bispecific antibody, human IgG1, kappa)
heavy: EVQLVESGGGLVKPGGSLKLSCAASGFTFSDSGMHWVRQAPEKGLEWITYINSGSSTIYYADSVKGRFTISRDNAKNTLFLQMTSLRSEDTAMYYCARGRGYAMDYWGQGTSVTVSSASTKGPSVFPLAPSSKSTSGGTAALGCLVKDYFPEPVTVSWNSGALTSGVHTFPAVLQSSGLYSLSSVVTVPSSSLGTQTYICNVNHKPSNTKVDKKVEPKSCDKTHTCPPCPAPELLGPSVFLFPPKPKDTLMISRTPEVTCVVVDVSHEDPEVKFNWYVDGVEVHNAKTKPREEQYNSTYRVVSVLTVLHQDWLNGKEYKCKVSNKALPAPIEKTISKAKGQPREPQVYTLPPSREEMTKNQVSLTCLVKGFYPSDIAVEWESNGQPENNYKTTPPVLDSDGSFFLYSKLTVDKSRWQQGNVFSCSVMHEALHNHYTQKSLSLSPGK
light: EIVLTQSPTTMAASPGEKITIFCSASSSISSDFLHWYQQKPGFSPKLLIYRISNLASGVPARFSGSGSGTSYSLTIGTMEAEDVATYYCQQGSNVPRTFGGGTKLEIKRTVAAPSVFIFPPSDEQLKSGTASVVCLLNNFYPREAKVQWKVDNALQSGNSQESVTEQDSKDSTYSLSSTLTLSKADYEKHKVYACEVTHQGLSSPVTKSFNRGECGGGGSGGGGSGGGGSGGGGSDIQMTQSPSSLSASVGDRVTITCKASQNIYIYLNWYQQKPGKAPKLLIYNTNNLQTGVPSRFSGSGSGTDFTLTISSLQPEDFATYYCLQHSSRRTFGGGTKVEIKGGGGSGGGGSGGGGSGGGGSQVQLVESGGGLVQPGGSLKLSCATSGFNFNDYFMNWVRQASGKGLEWVGQIRNKNYNYATYYTESLEGRVTISRDDSKNTAYLQMNSLKTEDTAVYYCTSYYYDGFADYFDYWGQGTTVTVSS
notes: Ly366 HC (IgG1 mutated Fc) + Ly366 LC-TM740 scFv VL-VH
For the molecule B1, the binding result in assay [1] and in assay [2] was “binds” throughout.

B2: Ly496 (bispecific antibody, human IgG1, kappa)
heavy: B1 heavy
light: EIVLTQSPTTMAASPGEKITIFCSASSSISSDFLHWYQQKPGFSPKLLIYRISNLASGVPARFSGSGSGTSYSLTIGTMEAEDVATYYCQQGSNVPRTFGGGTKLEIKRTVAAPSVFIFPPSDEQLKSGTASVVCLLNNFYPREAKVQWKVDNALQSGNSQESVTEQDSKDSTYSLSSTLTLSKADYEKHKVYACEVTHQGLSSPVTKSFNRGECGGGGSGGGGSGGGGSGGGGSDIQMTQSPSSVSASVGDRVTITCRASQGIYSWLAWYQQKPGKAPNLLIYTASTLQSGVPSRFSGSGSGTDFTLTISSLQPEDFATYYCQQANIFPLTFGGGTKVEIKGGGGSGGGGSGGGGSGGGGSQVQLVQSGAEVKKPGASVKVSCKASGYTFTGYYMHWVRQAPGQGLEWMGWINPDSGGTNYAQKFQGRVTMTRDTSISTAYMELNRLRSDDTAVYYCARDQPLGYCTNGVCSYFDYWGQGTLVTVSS
notes: Ly366 HC (IgG1 mutated Fc) + Ly366 LC-Ly253 scFv VL-VH
Turning to B2, the binding result in assay [1] and in assay [2] was “binds” throughout.

B3: Ly489 (bispecific antibody, human IgG1, kappa)
heavy: B1 heavy
light: EIVLTQSPTTMAASPGEKITIFCSASSSISSDFLHWYQQKPGFSPKLLIYRISNLASGVPARFSGSGSGTSYSLTIGTMEAEDVATYYCQQGSNVPRTFGGGTKLEIKRTVAAPSVFIFPPSDEQLKSGTASVVCLLNNFYPREAKVQWKVDNALQSGNSQESVTEQDSKDSTYSLSSTLTLSKADYEKHKVYACEVTHQGLSSPVTKSFNRGECGGGGSGGGGSGGGGSGGGGSQVQLVESGGGLVQPGGSLKLSCATSGFNFNDYFMNWVRQASGKGLEWVGQIRNKNYNYATYYTESLEGRVTISRDDSKNTAYLQMNSLKTEDTAVYYCTSYYYDGFADYFDYWGQGTTVTVSSGGGGSGGGGSGGGGSGGGGSDIQMTQSPSSLSASVGDRVTITCKASQNIYIYLNWYQQKPGKAPKLLIYNTNNLQTGVPSRFSGSGSGTDFTLTISSLQPEDFATYYCLQHSSRRTFGGGTKVEIK
notes: Ly366 HC (IgG1 mutated Fc) + Ly366 LC-TM740 scFv VH-VL
On to B3, for which the binding result in assay [1] and in assay [2] was “binds” each time.

B4: Ly492 (bispecific antibody, human IgG1, kappa)
heavy: B1 heavy
light: EIVLTQSPTTMAASPGEKITIFCSASSSISSDFLHWYQQKPGFSPKLLIYRISNLASGVPARFSGSGSGTSYSLTIGTMEAEDVATYYCQQGSNVPRTFGGGTKLEIKRTVAAPSVFIFPPSDEQLKSGTASVVCLLNNFYPREAKVQWKVDNALQSGNSQESVTEQDSKDSTYSLSSTLTLSKADYEKHKVYACEVTHQGLSSPVTKSFNRGECGGGGSGGGGSGGGGSGGGGSDIQMTQSPSSLSASVGDRVTITCLASEDISNDLAWYQQKPGKAPKLLIYFVDRLLDGVPSRFSGSGSGTDFTLTISSLQPEDFATYYCQQSYKYPPTFGQGTKLEIKGGGGSGGGGSGGGGSGGGGSEVQLVESGGGLVQPGGSLRLSCAASGFTFTNYGLHWVRQAPGKGLEWVSSISPSGGVTYYRDSVKGRFTISRDNSKNTLYLQMNSLRAEDTAVYYCAKPFLGWGGANWIAHWGQGTLVTVSS
notes: Ly366 HC (IgG1 mutated Fc) + Ly366 LC-TM559 scFv VL-VH
For the molecule B4, the binding result in assay [1] and in assay [2] was “binds” in each case.

B5: Ly497 (bispecific antibody, human IgG1, kappa)
heavy: B1 heavy
light: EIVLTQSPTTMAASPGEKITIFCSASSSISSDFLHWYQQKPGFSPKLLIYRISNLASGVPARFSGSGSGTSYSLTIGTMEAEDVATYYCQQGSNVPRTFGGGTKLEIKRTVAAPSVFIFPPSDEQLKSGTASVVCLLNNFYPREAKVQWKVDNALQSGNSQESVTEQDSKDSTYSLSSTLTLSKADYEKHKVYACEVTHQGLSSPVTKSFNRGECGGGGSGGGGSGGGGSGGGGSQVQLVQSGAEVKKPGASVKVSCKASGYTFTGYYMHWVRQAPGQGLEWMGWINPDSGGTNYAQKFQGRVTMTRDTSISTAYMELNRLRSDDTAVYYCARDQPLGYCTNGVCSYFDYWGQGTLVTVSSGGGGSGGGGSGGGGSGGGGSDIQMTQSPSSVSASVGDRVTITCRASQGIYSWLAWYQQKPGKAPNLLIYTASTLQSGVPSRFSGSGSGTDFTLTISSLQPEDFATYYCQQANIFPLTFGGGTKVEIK
notes: Ly366 HC (IgG1 mutated Fc) + Ly366 LC-Ly253 scFv VH-VL
For the molecule B5, the binding result in assay [1] and in assay [2] was “binds” each time.

B6: Ly493 (bispecific antibody, human IgG1, kappa)
heavy: B1 heavy
light: EIVLTQSPTTMAASPGEKITIFCSASSSISSDFLHWYQQKPGFSPKLLIYRISNLASGVPARFSGSGSGTSYSLTIGTMEAEDVATYYCQQGSNVPRTFGGGTKLEIKRTVAAPSVFIFPPSDEQLKSGTASVVCLLNNFYPREAKVQWKVDNALQSGNSQESVTEQDSKDSTYSLSSTLTLSKADYEKHKVYACEVTHQGLSSPVTKSFNRGECGGGGSGGGGSGGGGSGGGGSEVQLVESGGGLVQPGGSLRLSCAASGFTFTNYGLHWVRQAPGKGLEWVSSISPSGGVTYYRDSVKGRFTISRDNSKNTLYLQMNSLRAEDTAVYYCAKPFLGWGGANWIAHWGQGTLVTVSSGGGGSGGGGSGGGGSGGGGSDIQMTQSPSSLSASVGDRVTITCLASEDISNDLAWYQQKPGKAPKLLIYFVDRLLDGVPSRFSGSGSGTDFTLTISSLQPEDFATYYCQQSYKYPPTFGQGTKLEIK
notes: Ly366 HC (IgG1 mutated Fc) + Ly366 LC-TM559 scFv VH-VL
As for B6, the binding result in assay [1] and in assay [2] was “binds” throughout.

B7: Ly486 (bispecific antibody, human IgG1, kappa)
heavy: EVQLVESGGGLVKPGGSLKLSCAASGFTFSDSGMHWVRQAPEKGLEWITYINSGSSTIYYADSVKGRFTISRDNAKNTLFLQMTSLRSEDTAMYYCARGRGYAMDYWGQGTSVTVSSASTKGPSVFPLAPSSKSTSGGTAALGCLVKDYFPEPVTVSWNSGALTSGVHTFPAVLQSSGLYSLSSVVTVPSSSLGTQTYICNVNHKPSNTKVDKKVEPKSCDKTHTCPPCPAPELLGPSVFLFPPKPKDTLMISRTPEVTCVVVDVSHEDPEVKFNWYVDGVEVHNAKTKPREEQYNSTYRVVSVLTVLHQDWLNGKEYKCKVSNKALPAPIEKTISKAKGQPREPQVYTLPPSREEMTKNQVSLTCLVKGFYPSDIAVEWESNGQPENNYKTTPPVLDSDGSFFLYSKLTVDKSRWQQGNVFSCSVMHEALHNHYTQKSLSLSPGGGGGSGGGGSGGGGSGGGGSDIQMTQSPSSLSASVGDRVTITCKASQNIYIYLNWYQQKPGKAPKLLIYNTNNLQTGVPSRFSGSGSGTDFTLTISSLQPEDFATYYCLQHSSRRTFGGGTKVEIKGGGGSGGGGSGGGGSGGGGSQVQLVESGGGLVQPGGSLKLSCATSGFNFNDYFMNWVRQASGKGLEWVGQIRNKNYNYATYYTESLEGRVTISRDDSKNTAYLQMNSLKTEDTAVYYCTSYYYDGFADYFDYWGQGTTVTVSS
light: EIVLTQSPTTMAASPGEKITIFCSASSSISSDFLHWYQQKPGFSPKLLIYRISNLASGVPARFSGSGSGTSYSLTIGTMEAEDVATYYCQQGSNVPRTFGGGTKLEIKRTVAAPSVFIFPPSDEQLKSGTASVVCLLNNFYPREAKVQWKVDNALQSGNSQESVTEQDSKDSTYSLSSTLTLSKADYEKHKVYACEVTHQGLSSPVTKSFNRGEC
notes: Ly366 HC (IgG1 mutated Fc)-TM740 scFv VL-VH + Ly366 LC
As for B7, the binding result in assay [1] and in assay [2] was “binds” throughout.

B8: Ly474 (bispecific antibody, human IgG1, kappa)
heavy: EVQLVESGGDLVKPGGSLKLSCAASGFTFSSYGMSWVRQTPDKRLEWVAAISTGGSYTYYPDSVKGRFTISRDTATNTLYLQMSTLKSEDTAMYYCTRRGATGSWFAYWGQGTLVTVSAASTKGPSVFPLAPSSKSTSGGTAALGCLVKDYFPEPVTVSWNSGALTSGVHTFPAVLQSSGLYSLSSVVTVPSSSLGTQTYICNVNHKPSNTKVDKKVEPKSCDKTHTCPPCPAPELLGPSVFLFPPKPKDTLMISRTPEVTCVVVDVSHEDPEVKFNWYVDGVEVHNAKTKPREEQYNSTYRVVSVLTVLHQDWLNGKEYKCKVSNKALPAPIEKTISKAKGQPREPQVYTLPPSREEMTKNQVSLTCLVKGFYPSDIAVEWESNGQPENNYKTTPPVLDSDGSFFLYSKLTVDKSRWQQGNVFSCSVMHEALHNHYTQKSLSLSPGGGGGSGGGGSGGGGSGGGGSDIQMTQSPSSLSASVGDRVTITCKASQNIYIYLNWYQQKPGKAPKLLIYNTNNLQTGVPSRFSGSGSGTDFTLTISSLQPEDFATYYCLQHSSRRTFGGGTKVEIKGGGGSGGGGSGGGGSGGGGSQVQLVESGGGLVQPGGSLKLSCATSGFNFNDYFMNWVRQASGKGLEWVGQIRNKNYNYATYYTESLEGRVTISRDDSKNTAYLQMNSLKTEDTAVYYCTSYYYDGFADYFDYWGQGTTVTVSS
light: DILMTQSPSSMSVSLGDTVSITCHASQGINNNIGWLQRKPGKSFKGLIYHGTNLEDGVPSRFSGSGSGADYSLTISSLESEDFADYYCVQYVQFPRTFGGGTKLEIKRTVAAPSVFIFPPSDEQLKSGTASVVCLLNNFYPREAKVQWKVDNALQSGNSQESVTEQDSKDSTYSLSSTLTLSKADYEKHKVYACEVTHQGLSSPVTKSFNRGEC
notes: Ly361 HC (IgG1 mutated Fc)-TM740 scFv VL-VH + Ly361 LC
Take B8: the binding result in assay [1] and in assay [2] was “binds” each time.

Source of the values: US20220372155A1 (LYVGEN BIOPHARMA, published 2022).
